Measured values as given in article PMC3561363, “A Novel Retro-Inverso Peptide Inhibitor Reduces Amyloid Deposition, Oxidation and Inflammation and Stimulates Neurogenesis in the APPswe/PS1ΔE9 Mouse Model of Alzheimer’s Disease” (PLoS ONE, 2013).

Target: T1, Aβ(1–42) (UniProt P05067 672-713)
T1 construct: also called Aβ42; β-amyloid (Aβ) peptide; source: bought: rPeptide (recombinant Aβ42, Ultrapure)
Experiment: SPR; Aβ42 fibrils immobilised by amine coupling on a COOH5 chip (~5,000 RU), Sensi Q; RI-OR2-TAT injected at 1, 3 and 6 µM in PBS with 0.005% Tween 20 for 5 min at 30 µl/min; empty reference surface subtracted; each concentration fitted separately, 1:1 Langmuir model; apparent
Conditions: both partners purified

B1: RI-OR2-TAT (Ac-rGffvlkGrrrrqrrkkrGy-NH2) (peptide)
peptide: RGFFVLKGRRRRQRRKKRGY
HELM: PEPTIDE1{[ac].[dR].G.[dF].[dF].[dV].[dL].[dK].G.[dR].[dR].[dR].[dR].[dQ].[dR].[dR].[dK].[dK].[dR].G.[dY].[am]}$$$$V2.0
SMILES: CC(=O)N[C@H](CCCNC(=N)N)C(=O)NCC(=O)N[C@H](Cc1ccccc1)C(=O)N[C@H](Cc1ccccc1)C(=O)N[C@@H](C(=O)N[C@H](CC(C)C)C(=O)N[C@H](CCCCN)C(=O)NCC(=O)N[C@H](CCCNC(=N)N)C(=O)N[C@H](CCCNC(=N)N)C(=O)N[C@H](CCCNC(=N)N)C(=O)N[C@H](CCCNC(=N)N)C(=O)N[C@H](CCC(N)=O)C(=O)N[C@H](CCCNC(=N)N)C(=O)N[C@H](CCCNC(=N)N)C(=O)N[C@H](CCCCN)C(=O)N[C@H](CCCCN)C(=O)N[C@H](CCCNC(=N)N)C(=O)NCC(=O)N[C@H](Cc1ccc(O)cc1)C(N)=O)C(C)C
notes: source: synthetic peptide, custom made by Cambridge Peptides (>95% purity)
Kd: 58 to 125 nM | koff: 0.00037 s⁻¹ | kon: 3680 M⁻¹ s⁻¹
